Source: IntAct's records for PubMed 17965270

B1: B-box zinc finger protein 21 (Arabidopsis thaliana (Mouse-ear cress)), Q9LQZ7 (parent)
chain: MKIRCDVCDKEEASVFCTADEASLCGGCDHQVHHANKLASKHLRFSLLYPSSSNTSSPLCDICQDKKALLFCQQDRAILCKDCDSSIHAANEHTKKHDRFLLTGVKLSATSSVYKPTSKSSSSSSSNQDFSVPGSSISNPPPLKKPLSAPPQSNKIQPFSKINGGDASVNQWGSTSTISEYLMDTLPGWHVEDFLDSSLPTYGFSKSGDDDGVLPYMEPEDDNNTKRNNNNNNNNNNNTVSLPSKNLGIWVPQIPQTLPSSYPNQYFSQDNNIQFGMYNKETSPEVVSFAPIQNMKQQGQNNKRWYDDGGFTVPQITPPPLSSNKKFRSFW
partner: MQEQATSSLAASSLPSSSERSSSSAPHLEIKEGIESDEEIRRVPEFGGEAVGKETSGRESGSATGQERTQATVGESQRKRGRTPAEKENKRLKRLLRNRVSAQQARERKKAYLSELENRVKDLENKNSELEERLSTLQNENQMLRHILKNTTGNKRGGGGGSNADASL

Variants of: B1
Details: with hy5_arath HY5, O24646

| Variant | effect of a mutation on the interaction |
| --- | --- |
| D84A | disrupting interaction |
| D75A | disrupting interaction |
| D20A | disrupting interaction |
